One series addresses T1, Rdh54/Tid1 (Saccharomyces cerevisiae, UniProt P38086 1-958).
T1 sequence: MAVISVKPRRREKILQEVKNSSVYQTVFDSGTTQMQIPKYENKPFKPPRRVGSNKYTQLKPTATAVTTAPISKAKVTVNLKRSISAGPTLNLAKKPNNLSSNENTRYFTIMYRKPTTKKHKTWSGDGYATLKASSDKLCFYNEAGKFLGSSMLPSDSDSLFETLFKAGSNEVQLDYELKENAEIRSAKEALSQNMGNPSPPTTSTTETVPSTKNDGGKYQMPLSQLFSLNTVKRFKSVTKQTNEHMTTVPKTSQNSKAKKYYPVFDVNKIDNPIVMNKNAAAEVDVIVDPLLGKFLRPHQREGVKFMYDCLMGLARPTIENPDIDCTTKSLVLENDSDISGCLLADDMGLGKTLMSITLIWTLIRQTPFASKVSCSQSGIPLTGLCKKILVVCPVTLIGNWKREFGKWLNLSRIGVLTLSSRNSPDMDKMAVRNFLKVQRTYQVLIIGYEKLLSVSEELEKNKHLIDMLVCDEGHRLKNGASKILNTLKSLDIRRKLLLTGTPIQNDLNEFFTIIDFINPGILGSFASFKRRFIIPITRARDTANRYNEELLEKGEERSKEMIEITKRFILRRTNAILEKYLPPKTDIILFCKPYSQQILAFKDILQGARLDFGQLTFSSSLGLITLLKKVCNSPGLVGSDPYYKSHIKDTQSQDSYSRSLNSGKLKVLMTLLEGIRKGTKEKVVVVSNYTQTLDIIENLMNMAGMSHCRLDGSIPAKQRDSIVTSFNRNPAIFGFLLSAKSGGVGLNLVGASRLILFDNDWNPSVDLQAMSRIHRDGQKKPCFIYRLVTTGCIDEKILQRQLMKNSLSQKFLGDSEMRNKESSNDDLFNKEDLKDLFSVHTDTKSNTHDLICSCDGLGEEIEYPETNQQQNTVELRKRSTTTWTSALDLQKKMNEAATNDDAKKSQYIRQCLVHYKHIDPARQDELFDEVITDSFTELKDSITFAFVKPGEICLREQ
As to the kind of experiment: fluorescence polarization. (In general: Polarisation of emitted light reports the rotation of a fluorescent probe.)

The next series addresses T2, His6-tagged Dmc1 (Saccharomyces cerevisiae, UniProt P25453 1-334).
T2 sequence (looked up): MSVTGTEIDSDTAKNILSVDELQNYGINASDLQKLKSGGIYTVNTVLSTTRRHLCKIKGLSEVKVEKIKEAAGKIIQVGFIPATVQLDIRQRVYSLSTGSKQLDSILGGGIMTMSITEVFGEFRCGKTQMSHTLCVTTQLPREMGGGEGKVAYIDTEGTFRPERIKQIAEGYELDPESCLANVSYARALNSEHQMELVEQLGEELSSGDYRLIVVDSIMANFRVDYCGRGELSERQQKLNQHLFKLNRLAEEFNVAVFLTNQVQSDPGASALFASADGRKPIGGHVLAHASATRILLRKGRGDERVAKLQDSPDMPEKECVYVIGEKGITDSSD
The series is described as follows: co-IP.

Series [1] has as its target Replication protein A (RPA), Saccharomyces cerevisiae (Saccharomyces cerevisiae, UniProt P22336 1-621; P26754 1-273; P26755 1-122). The series is described as follows: pull-down.

Chain of Replication protein A (RPA), Saccharomyces cerevisiae (P22336 whole entry, chain 1 of 3): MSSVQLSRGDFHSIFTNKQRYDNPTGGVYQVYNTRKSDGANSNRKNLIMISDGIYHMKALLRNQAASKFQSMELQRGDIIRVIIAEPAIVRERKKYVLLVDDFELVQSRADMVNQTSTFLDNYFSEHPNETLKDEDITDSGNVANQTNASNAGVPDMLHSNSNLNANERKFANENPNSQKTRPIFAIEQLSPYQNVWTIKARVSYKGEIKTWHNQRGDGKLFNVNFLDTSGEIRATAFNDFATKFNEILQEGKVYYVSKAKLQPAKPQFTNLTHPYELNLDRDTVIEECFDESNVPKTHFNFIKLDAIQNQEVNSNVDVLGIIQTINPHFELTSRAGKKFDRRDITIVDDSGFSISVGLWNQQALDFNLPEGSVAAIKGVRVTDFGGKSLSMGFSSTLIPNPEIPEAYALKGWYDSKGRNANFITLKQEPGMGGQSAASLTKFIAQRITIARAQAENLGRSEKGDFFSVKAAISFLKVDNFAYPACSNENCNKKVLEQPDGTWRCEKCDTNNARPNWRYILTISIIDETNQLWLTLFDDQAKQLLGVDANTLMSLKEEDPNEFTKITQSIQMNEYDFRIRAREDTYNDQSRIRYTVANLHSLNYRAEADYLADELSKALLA
Chain of Replication protein A (RPA), Saccharomyces cerevisiae (P26754 whole entry, chain 2 of 3): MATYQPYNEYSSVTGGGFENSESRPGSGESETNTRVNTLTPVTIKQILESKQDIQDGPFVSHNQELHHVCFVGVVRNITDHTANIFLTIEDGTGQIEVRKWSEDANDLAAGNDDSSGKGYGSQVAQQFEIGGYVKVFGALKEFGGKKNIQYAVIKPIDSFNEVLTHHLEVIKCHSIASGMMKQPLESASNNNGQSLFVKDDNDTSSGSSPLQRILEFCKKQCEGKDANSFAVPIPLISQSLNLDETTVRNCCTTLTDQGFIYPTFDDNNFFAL
Chain of Replication protein A (RPA), Saccharomyces cerevisiae (P26755 whole entry, chain 3 of 3): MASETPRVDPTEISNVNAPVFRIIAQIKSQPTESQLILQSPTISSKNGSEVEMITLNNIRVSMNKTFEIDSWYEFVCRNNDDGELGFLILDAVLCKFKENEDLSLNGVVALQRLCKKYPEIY

B1: 84-mer ssDNA (ssDNA)
DNA: GGTAGCGGTTGGGTGAGTGGTGGGGAGGGTCGGGAGGTGGCGTAGAAACATGATAGGAATGTGAATGAATGAAGTACAAGTAAA
For B1, the Kd (as a rule, the equilibrium constant for the complex coming apart) with Rdh54/Tid1 is 230 nM.

B2: His6-tagged Mei5-Sae3 heterodimer (complex, Saccharomyces cerevisiae)
chain 1: MHNQEEWLDKDKTLVNEEENTCINHSYTKKDTNNYRVGKSGIKDLKKPTNQKEIAIKNRELTKQLTLLRQENNHLQQACKILSENKIIENRKSIEKWRTICEMELSFILNSTLIKINRMGGYKDFLEKEMEAKKRRLEYQIDNGMEDQICEIKESDDFRQLSEVEKQEWESQMNEQLKELEKKKIAELEKLNKVLHDSEGKDFGMAELCTRLKLDYSLIFPQ
chain 2: MNYLETQLNKKQKQIQEYESMNGNLIKMFEQLSKEKKNDETPKKISSTYIKELKEYNELRDAGLRLAQIIADEKQCKIKDVFEEIGYSMKD
With B2, the binding result (with His6-tagged Dmc1; in series [1]) was “binds” throughout.

The values are drawn from publication PMC6344864 (Nucleic Acids Research, 2018).
